Results on two sequences are retold here after patent US20140072613A1, “Compositions and Methods for Treating Cutaneous Scarring” (priority 2012, published 2014).

Common to all, as to assay: biochemical
Holding throughout (type): biochemical

The target in experiment [1] is 266 human kinases (Homo sapiens, UniProt O43318). Conditions: TAK1(h); 100 μM. The essentials: (§1)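 Steps: kinase transfers radiolabelled phosphate from ATP onto a positively charged substrate; the substrate is trapped on a negatively charged filter; bound radioactivity is counted by scintillation and compared with uninhibited (100%) activity.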
Experiment [2] has as its target T1, 266 human kinases (Homo sapiens, UniProt P52333).
T1 sequence (P52333 1-1124): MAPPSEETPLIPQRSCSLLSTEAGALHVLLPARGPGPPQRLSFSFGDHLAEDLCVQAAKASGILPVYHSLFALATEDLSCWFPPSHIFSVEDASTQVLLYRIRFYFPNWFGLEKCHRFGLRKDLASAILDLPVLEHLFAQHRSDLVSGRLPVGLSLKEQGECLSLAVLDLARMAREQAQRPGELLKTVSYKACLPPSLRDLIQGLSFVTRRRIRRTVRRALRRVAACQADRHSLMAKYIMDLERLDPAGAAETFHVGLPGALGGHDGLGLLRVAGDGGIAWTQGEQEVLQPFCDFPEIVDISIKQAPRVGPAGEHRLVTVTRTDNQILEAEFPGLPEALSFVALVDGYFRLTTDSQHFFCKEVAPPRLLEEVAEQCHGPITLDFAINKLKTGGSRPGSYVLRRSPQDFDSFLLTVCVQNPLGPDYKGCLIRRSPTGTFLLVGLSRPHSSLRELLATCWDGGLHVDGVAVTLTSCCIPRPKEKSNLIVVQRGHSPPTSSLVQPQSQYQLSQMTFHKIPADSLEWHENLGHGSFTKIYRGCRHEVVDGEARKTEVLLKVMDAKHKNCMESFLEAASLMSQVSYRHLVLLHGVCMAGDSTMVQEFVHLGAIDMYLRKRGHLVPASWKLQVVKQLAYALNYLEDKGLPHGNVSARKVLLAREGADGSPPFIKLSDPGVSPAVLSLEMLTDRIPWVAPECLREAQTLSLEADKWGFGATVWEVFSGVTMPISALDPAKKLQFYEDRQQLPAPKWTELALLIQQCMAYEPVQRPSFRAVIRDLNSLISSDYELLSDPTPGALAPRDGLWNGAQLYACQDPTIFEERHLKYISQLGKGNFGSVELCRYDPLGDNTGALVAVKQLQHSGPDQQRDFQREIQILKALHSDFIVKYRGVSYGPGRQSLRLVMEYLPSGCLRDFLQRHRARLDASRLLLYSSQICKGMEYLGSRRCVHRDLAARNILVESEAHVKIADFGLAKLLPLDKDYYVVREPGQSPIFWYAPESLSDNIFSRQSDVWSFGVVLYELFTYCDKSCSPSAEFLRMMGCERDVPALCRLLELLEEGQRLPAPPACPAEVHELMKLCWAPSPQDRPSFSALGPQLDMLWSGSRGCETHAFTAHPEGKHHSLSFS
Conditions: JAK3(h); 100 μM. The procedure, abridged: as §1

Experiment [3] concerns the target 266 human kinases (Homo sapiens, UniProt P49840). Conditions: GSK3α(h); 100 μM. The procedure, abridged:
as §1

Experiment [4] has as its target T2, 266 human kinases (Homo sapiens, UniProt O15111).
T2 sequence (O15111 1-745): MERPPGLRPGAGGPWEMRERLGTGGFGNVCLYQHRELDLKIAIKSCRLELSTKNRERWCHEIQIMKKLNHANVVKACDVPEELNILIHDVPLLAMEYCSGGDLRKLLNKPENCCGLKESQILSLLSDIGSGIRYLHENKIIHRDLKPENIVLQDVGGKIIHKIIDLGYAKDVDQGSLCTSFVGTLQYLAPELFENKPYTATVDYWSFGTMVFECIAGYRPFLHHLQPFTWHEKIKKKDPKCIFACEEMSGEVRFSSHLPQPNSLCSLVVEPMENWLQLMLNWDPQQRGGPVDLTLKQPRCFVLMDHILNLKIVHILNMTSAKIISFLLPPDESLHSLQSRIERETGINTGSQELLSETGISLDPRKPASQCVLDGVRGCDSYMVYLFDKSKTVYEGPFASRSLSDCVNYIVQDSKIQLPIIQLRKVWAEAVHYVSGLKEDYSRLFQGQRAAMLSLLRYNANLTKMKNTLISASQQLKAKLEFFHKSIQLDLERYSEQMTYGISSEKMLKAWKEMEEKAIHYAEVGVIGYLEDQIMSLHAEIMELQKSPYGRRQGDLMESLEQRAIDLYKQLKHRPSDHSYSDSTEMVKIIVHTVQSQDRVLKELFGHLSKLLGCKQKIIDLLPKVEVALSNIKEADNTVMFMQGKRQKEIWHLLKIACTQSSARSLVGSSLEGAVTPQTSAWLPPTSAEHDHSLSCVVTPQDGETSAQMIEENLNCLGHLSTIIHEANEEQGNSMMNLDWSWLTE
Conditions: IKKα(h); 100 μM. The essentials:
as §1

In experiment [5] the target is 266 human kinases (Homo sapiens, UniProt Q06187, R28H). To be noted: BTK(R28H)(h); 100 μM. The essentials:
as §1

Chain of 266 human kinases (Homo sapiens, UniProt O43318) (O43318 whole entry): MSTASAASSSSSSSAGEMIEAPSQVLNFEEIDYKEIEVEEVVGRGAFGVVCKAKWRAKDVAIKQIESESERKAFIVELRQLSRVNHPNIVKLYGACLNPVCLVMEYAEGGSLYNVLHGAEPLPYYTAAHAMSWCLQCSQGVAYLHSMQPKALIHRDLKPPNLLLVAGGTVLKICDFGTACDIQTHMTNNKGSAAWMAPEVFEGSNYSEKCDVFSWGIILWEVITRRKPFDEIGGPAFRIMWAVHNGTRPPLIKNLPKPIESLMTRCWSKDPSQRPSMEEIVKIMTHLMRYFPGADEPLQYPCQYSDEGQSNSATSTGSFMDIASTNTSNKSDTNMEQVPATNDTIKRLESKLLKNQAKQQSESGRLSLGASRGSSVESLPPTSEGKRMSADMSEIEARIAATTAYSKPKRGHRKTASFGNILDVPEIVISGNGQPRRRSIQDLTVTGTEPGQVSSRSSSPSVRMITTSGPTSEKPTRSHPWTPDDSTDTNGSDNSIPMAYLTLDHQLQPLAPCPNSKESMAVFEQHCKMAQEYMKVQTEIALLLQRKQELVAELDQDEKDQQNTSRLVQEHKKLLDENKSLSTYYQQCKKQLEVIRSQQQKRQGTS
Chain of 266 human kinases (Homo sapiens, UniProt P49840) (P49840 whole entry): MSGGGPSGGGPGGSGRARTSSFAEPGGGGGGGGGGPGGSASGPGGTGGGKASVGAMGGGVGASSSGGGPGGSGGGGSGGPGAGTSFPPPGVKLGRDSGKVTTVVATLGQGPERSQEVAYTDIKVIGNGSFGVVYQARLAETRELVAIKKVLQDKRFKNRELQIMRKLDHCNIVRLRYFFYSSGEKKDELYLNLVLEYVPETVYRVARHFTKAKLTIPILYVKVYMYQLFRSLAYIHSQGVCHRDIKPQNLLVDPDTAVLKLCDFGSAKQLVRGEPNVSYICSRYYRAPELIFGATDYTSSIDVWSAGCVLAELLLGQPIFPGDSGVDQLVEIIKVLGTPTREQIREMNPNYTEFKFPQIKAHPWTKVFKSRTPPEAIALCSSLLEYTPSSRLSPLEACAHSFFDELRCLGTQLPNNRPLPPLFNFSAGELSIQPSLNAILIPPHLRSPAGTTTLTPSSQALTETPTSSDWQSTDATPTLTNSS
Chain of 266 human kinases (Homo sapiens, UniProt Q06187, R28H) (Q06187 whole entry R28H): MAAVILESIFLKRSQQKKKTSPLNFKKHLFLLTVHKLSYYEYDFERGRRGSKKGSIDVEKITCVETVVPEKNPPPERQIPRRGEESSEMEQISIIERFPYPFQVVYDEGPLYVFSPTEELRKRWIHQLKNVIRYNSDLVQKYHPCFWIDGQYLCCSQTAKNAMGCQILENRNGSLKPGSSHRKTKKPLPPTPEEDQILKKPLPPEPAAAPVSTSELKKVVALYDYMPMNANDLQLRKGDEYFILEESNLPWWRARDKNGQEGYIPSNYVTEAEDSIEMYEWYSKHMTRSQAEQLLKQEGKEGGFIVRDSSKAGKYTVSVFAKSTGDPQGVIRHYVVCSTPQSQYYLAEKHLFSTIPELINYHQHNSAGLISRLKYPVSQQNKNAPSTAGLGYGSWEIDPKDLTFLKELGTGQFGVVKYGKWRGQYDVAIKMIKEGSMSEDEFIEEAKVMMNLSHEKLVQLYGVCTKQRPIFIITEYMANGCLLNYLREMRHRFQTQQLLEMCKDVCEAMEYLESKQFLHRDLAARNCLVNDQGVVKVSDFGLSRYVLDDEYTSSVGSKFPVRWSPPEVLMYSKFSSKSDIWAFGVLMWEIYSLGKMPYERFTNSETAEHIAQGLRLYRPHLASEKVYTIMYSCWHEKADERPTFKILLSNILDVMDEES

For the sequence “YARAAARQARAKALNRQLGVA (mammal) [MMI-0200]”, in experiment [1], the “% activity” value stood at 124%.

With “HRRIKAWLKKIKALARQLGVAA (mammal) [MMI-0500]”, the “% activity” value in experiment [2] was found to be 95%; in experiment [3], 175%; in experiment [4] it was 50%; in experiment [5] it was 10%.
